# Assay results as given in the supplement of paper PMC10126150.
# ± gives the standard deviation of the averaged measurements.
# Test system: ATP
# Experiment: switch fluorescence ratio, 500 uM ATP over buffer (Cy3 cluster intensity, sum of 5 cycles each) (fold (ratio)); higher = stronger signal-on switching upon ATP binding; sequences stand for … in TCGTCGGCAGCGTCAGATGTGTATAAGAGACAGTTTTTTTTTTTTTTTTTTTTTTTTT…TC
# Conditions: aptamer strand: ATP DNA aptamer (quencher-CACCTGGGGGAGTATTGCGGAGGAAGG + anchor), 100 nM annealed; ATP concentration: 500 uM
# Procedure, shortened: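 Switching-strand clusters labelled with Cy3 on a modified Illumina MiSeq flow-cell were annealed to 100 nM quencher-labelled ATP aptamer, imaged in selection buffer, and re-imaged after 15 min with 500 uM ATP at 22 °C. This was done over five cycles with NaOH stripping and re-annealing in between. The fluorescence ratio is summed target-cycle over summed buffer-cycle Cy3 intensity per cluster, averaged per switch-domain sequence, excluding clusters outside 100-1000 RFU.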
# 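Further: ATP exposure 15 min at 22 °C before imaging.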
row,Sequence,switch fluorescence ratio
1,CATTTATTTG,1.01 ± 0.014
2,GAATTTGTTT,0.984 ± 0.035
3,ACCGACTTGC,1.09 ± 0.018
4,GACAATGGTT,1 ± 0.027
5,AGAGGCCTTG,0.969 ± 0.013
6,CAGAGGTGGC,1.07 ± 0.032
7,TCGCCGTTCT,0.99 ± 0.033
8,AAATGCTATA,1.01 ± 0.022
9,GACTGTAGGA,1.03 ± 0.0051
10,CTGTTCACGG,1.017 ± 0.0092
11,TTGTAATTGT,0.995 ± 0.021
12,TGGTCATTGC,1.064 ± 0.0086
13,GTTGACGGGG,1.01 ± 0.021
14,GGGTTGTATG,0.997 ± 0.038
15,GTAGTTTTGA,0.981 ± 0.018
16,ATGGCACTGG,1.07 ± 0.013
17,AGGAATTCGG,0.999 ± 0.017
18,CAGTCCGGGC,0.991 ± 0.028
19,ATATTTGGTT,0.985 ± 0.034
20,TAGATTGTA,1.01 ± 0.029
21,ATTACTAAAT,1.01 ± 0.02
22,GCTGGTAGTT,0.995 ± 0.028
23,TAAGAGGTTT,0.995 ± 0.01

row,Sequence,switch fluorescence ratio
1,CCAGGGGTGC,1.48 ± 0.05
2,GATATTGAAG,0.974 ± 0.031
3,GAGGTTTTGG,1.03 ± 0.057
4,AATCGGTACT,1.01 ± 0.038
5,GGGCAGCTCT,0.958 ± 0.016
6,TGTGAATGGT,0.985 ± 0.015
7,AATCGTAGTG,0.9895 ± 0.0071
8,CCGTTGGTGG,0.983 ± 0.024
9,TGTGGGGAAT,1.04 ± 0.075
10,GCCTCTGGTG,1.33 ± 0.035
11,GGGGTATCCA,1.03 ± 0.03
12,GAGAGGGAAT,1.021 ± 0.0091
13,TTCTTTTGGG,0.987 ± 0.039
14,TTGGTCGTTT,0.956 ± 0.038
15,GTATGTGTGC,0.96 ± 0.03
16,AAGCTACGGC,1.02 ± 0.019
17,TCTTTGTCTA,0.972 ± 0.02
18,TCCGAAAAAG,1.33 ± 0.44
19,TTGGTTGAAA,1.01 ± 0.013
20,TCGGTTGTTG,1.01 ± 0.013
21,GGGTGAGGTT,0.997 ± 0.021
22,TAGAGCAGGT,1.03 ± 0.011
23,AACTCTAAAA,1.05 ± 0.051

row,Sequence,switch fluorescence ratio
1,TTACCTCTGC,1.39 ± 0.067
2,GGAGTCGACG,1.02 ± 0.012
3,TTGATCTTGG,1.04 ± 0.013
4,GATCCGGGC,1.05 ± 0.087
5,CTGAGGGGCT,0.982 ± 0.02
6,GCATGGTTGG,0.976 ± 0.034
7,GCATTAGGGG,1.01 ± 0.016
8,CAATGTGAGG,1.01 ± 0.0063
9,GTAAATGGGG,0.975 ± 0.011
10,CGTATTTGGA,0.985 ± 0.046
11,GGGAATAGAT,0.9835 ± 0.002
12,ATGATGGTTT,1.02 ± 0.032
13,CAAGGCTCAA,1 ± 0.0013
14,GAGACGCTTT,1.04 ± 0.049
15,CAATTAGGGA,0.985 ± 0.017
16,TGCTGTTTTT,0.98095 ± 0.00061
17,TAGTTTTCGT,0.9817 ± 0.0012
18,AAGGAAAGGC,0.961 ± 0.037
19,CAGGCTGGTC,0.992 ± 0.053
20,TGATCGCTGG,1.02 ± 0.042
21,CAATTGCGGG,0.988 ± 0.055
22,TAAATGGACG,0.9669 ± 0.0095
23,CTATTTATCA,1.02 ± 0.053

row,Sequence,switch fluorescence ratio
1,CCGATTATTT,0.997 ± 0.015
2,TGACCGAAGT,1.043 ± 0.0028
3,TGACTTGGCG,1.026 ± 0.0087
4,GAATAATGAT,0.989 ± 0.028
5,ACTAAAGGCT,1.01 ± 0.015
6,AATTTGTACC,0.989 ± 0.013
7,TGCGCTTATA,1.09 ± 0.015
8,TTTAGCGCAT,1.04 ± 0.06
9,CCGAGGTCGT,1.17 ± 0.066
10,ACGTATTAAT,1.12 ± 0.031
11,TTTTGGCTAA,1.01 ± 0.022
12,TTTGACTTTC,1.07 ± 0.025
13,AAAGGGGGTG,1.02 ± 0.047
14,AGTTATACGT,1.03 ± 0.048
15,AGTTTGTTTG,1.006 ± 0.009
16,ACGGCGAGAG,1.06 ± 0.03
17,AACTCCGGCG,1.129 ± 0.0087
18,CGCTTTAATA,1.07 ± 0.019
19,AAGCAGGGTG,1 ± 0.04
20,TTCTTGTTTT,1.01 ± 0.016
21,GTTCAAAAGG,0.919 ± 0.028
22,TATCGGGGGG,0.996 ± 0.043
23,AGACGGCGGG,0.996 ± 0.012

row,Sequence,switch fluorescence ratio
1,TGAAGAAGGT,1.03 ± 0.015
2,TGTGTGCGGC,1 ± 0.028
3,TATTGGGTGG,0.9919 ± 0.0053
4,CGTACAAGTC,0.963 ± 0.058
5,TAGAGGCAGC,0.999 ± 0.044
6,TCTTTAATAA,1 ± 0.039
7,TCAGGCGGC,0.992 ± 0.017
8,CGGTACTTAT,0.983 ± 0.017
9,ATAGTTGGTG,0.994 ± 0.029
10,TCGCCCGAGC,1.09 ± 0.11
11,GGGGTGCGTG,0.984 ± 0.045
12,ATTATGGGGA,0.995 ± 0.016
13,AGCACGGGTA,1.008 ± 0.0055
14,ATAGTCAGTA,1.01 ± 0.019
15,TGTGAACTTT,1.01 ± 0.012
16,TCATCTAGTG,1 ± 0.049
17,CAGTTAGCAT,1.101 ± 0.0097
18,AATAATGCGG,0.9969 ± 0.0071
19,GGATCTAGGG,0.981 ± 0.018
20,ATAAGGGCGA,0.985 ± 0.028
21,GCTAGGACGT,0.997 ± 0.03
22,GGCTTGAAGG,1.03 ± 0.032
23,TTCTCGGCTA,1.56 ± 0.61

row,Sequence,switch fluorescence ratio
1,ACTAGTATGC,0.992 ± 0.017
2,TTTACCGGAG,1.15 ± 0.089
3,AGTCTAGGGC,1.04 ± 0.017
4,TGAATGGGGC,0.953 ± 0.042
5,TGGGGTAAAT,1.01 ± 0.017
6,AGATGAGGAA,1.004 ± 0.01
7,GAGTGTACGT,1.01 ± 0.052
8,TATTTACATT,1.03 ± 0.048
9,TTTACGAAAG,1.04 ± 0.044
10,AAAGAGGTTC,1.04 ± 0.068
11,TATGTATCCG,1.03 ± 0.062
12,TTTGCGGGTT,1 ± 0.057
13,TTGGATGTCT,1.008 ± 0.0072
14,ATTGGACCAT,0.976 ± 0.036
15,AAATGAAGGG,1 ± 0.058
16,ATGGTTGGAC,0.9925 ± 0.0094
17,GTGGGCGCCG,0.987 ± 0.023
18,GGTCAAGCTC,1.02 ± 0.02
19,TCTGGGAAGT,0.986 ± 0.011
20,AAAGTTAGGG,1.01 ± 0.038
21,CTTCACACGT,1.016 ± 0.01
22,GATGCTGTGC,1.0328 ± 0.00033
23,GGATTGTTTA,1 ± 0.014

row,Sequence,switch fluorescence ratio
1,GGTGTAGGGG,1.04 ± 0.074
2,CAAGGGCCAG,0.973 ± 0.07
3,GATTAGGCGA,1.023 ± 0.0064
4,GCTTTCGGGC,1.01 ± 0.045
5,TAGCTATTGT,0.984 ± 0.012
6,TAGCTAGATG,1.02 ± 0.022
7,TAGGTTTGCG,0.994 ± 0.053
8,AATAGTTGGA,0.9846 ± 0.0064
9,CCTTTGGTTA,1.03 ± 0.028
10,GGCTGGAAAC,1.23 ± 0.22
11,AGTTTGATGA,0.989 ± 0.028
12,CCAATGTACT,1.36 ± 0.05
13,CGAGGTTGAC,1.0385 ± 0.00054
14,CTCTAAAAAG,1.06 ± 0.05
15,ATGCGTACTT,1.01 ± 0.02
16,ATTATTGGTC,0.99 ± 0.029
17,TGGGTGACGG,0.958 ± 0.036
18,GCGGATGAGC,0.995 ± 0.013
19,ATAGATGAGG,1.007 ± 0.0046
